{
  "source": "paper PMC10178127",
  "about": "“Immunomodulatory Effects of the Pea Defensin Psd1 in the Caco-2/Immune Cells Co-Culture upon Candida albicans Infection” (International Journal of Molecular Sciences, 2023)",
  "key": {"[1]": {"test_system": "human peripheral blood mononuclear cells (PBMCs)", "experiment": "Resazurin-based cell cytotoxicity assay", "details": "24 h", "method": "The cytotoxic properties of the pea defensin Psd1 were investigated by resazurin-based cell cytotoxicity assay as previously described. In brief, PBMCs were seeded in 96-well plates at 2 × 10^6 cells per well in RPMI-1640 supplemented with 10% FBS and kept in a CO2 incubator for 24 h. After this, serial two-fold dilutions of defensin in a complete culture medium were added to the wells at final concentrations from 0.2 to 50 μM and the plates were incubated for 24 h. Resazurin (Sigma) was added at a final concentration of 70 µM, and the plates were incubated overnight (16–18 h). Fluorescent resorufin was registered using a 535/595 filter at PlateReader AF2200 (Eppendorf). Untreated cells were used as negative controls. Non-ionogenic detergent Triton X-100 and membrane-active peptide melittin from honeybee venom were used as positive controls. The cell viability was calculated according to the following equation: cell viability (%) = (Fsample/Fcontrol) × 100%. Cell lysis was monitored with an Olympus CKX41 microscope."}, "[2]": {"test_system": "C. albicans v47a3", "experiment": "Antifungal activity, microdilution method", "type": "cell-based, Candida albicans", "method": "Antifungal activity of recombinant Psd1 against C. albicans v47a3 was tested by the microdilution method using 96-well microplates mainly as described for this defensin in [15]. Yeast cells in half-modified YPD broth at a final concentration of 10^4 cells/mL were used. Final Psd1 concentrations in the wells were 100, 50, 25, 12.5, 6.25, 3.125, and 1.56 μM. Plates were incubated at 30 °C for 24 h. Yeast growth was estimated using an inverted microscope as well as by measuring the optical density at 540 nm. The percentage of growth inhibition was defined as growth inhibition(%) = ((Acontrol − Asample)/Acontrol) × 100%. All of the experiments were performed twice in triplicate."}},
  "data": [
    {"substance": "Psd1: pea defensin from Pisum sativum (UNIPROT P81929), recombinant peptide overexpressed in Escherichia coli (KTCEHLADTYRGVCFTNASCDDHCKNKAHLISGTCHNWKCFCTQNC; UniProt P81929 1-46, looked up)", "values": [
      {"measurement": "cytotoxic activity on PBMCs", "setting": "[1]; 0.2 to 50 μM", "value": "no cytotoxic activity"},
      {"measurement": "Cell viability", "setting": "[1]; PBMCs, 50 μM", "value": 100, "unit": "%"},
      {"measurement": "IC50", "setting": "[2]; C. albicans v47a3, 10^4 cells/mL, half-modified YPD broth, 30 °C, 24 h, OD 540 nm, twice in triplicate, read-out: concentration of 50% growth inhibition of yeast cells", "value": 25, "unit": "µM"},
      {"measurement": "effect on the morphology of the fungus", "setting": "[2]; C. albicans v47a3, inverted microscope", "value": "did not affect the morphology of the fungus"}
    ]}
  ]
}
